Test results reported in patent US20260001928A1 (CORTERIA PHARMACEUTICALS, priority 2022, published 2026).
*1 amine or outer side, *2 acyl side, *3 side chain or, on linkers, in order; H or OH if unused. Side-chain parts run from the residue outwards. [ ]: non-standard residue; d: D form. The star is where a group is joined. C20 diacid = O=C(O)CCCCCCCCCCCCCCCCCCC(=O)*; C18 diacid = O=C(O)CCCCCCCCCCCCCCCCC(=O)*; C16 diacid = O=C(O)CCCCCCCCCCCCCCC(=O)*; γGlu = O=C(O)[C@H](CCC(=O)[*:2])N[*:1]; Api = NC1(C(=O)O)CCNCC1; AEEA = NCCOCCOCC(=O)O; Aib = CC(C)(N)C(=O)O; Butyryl = CCCC(=O)*

B1: SEQ ID NO 207 (peptide)
peptide: Ac-IVLSLD[dV]PIKLK([γGlu-C20 diacid])KILLEQEKQKKQREQAETN[Api]QILAQV-NH2
SMILES: CC[C@H](C)[C@H](NC(C)=O)C(=O)N[C@H](C(=O)N[C@@H](CC(C)C)C(=O)N[C@@H](CO)C(=O)N[C@@H](CC(C)C)C(=O)N[C@@H](CC(=O)O)C(=O)N[C@@H](C(=O)N1CCC[C@H]1C(=O)N[C@H](C(=O)N[C@@H](CCCCN)C(=O)N[C@@H](CC(C)C)C(=O)N[C@@H](CCCCNC(=O)CC[C@H](NC(=O)CCCCCCCCCCCCCCCCCCC(=O)O)C(=O)O)C(=O)N[C@@H](CCCCN)C(=O)N[C@H](C(=O)N[C@@H](CC(C)C)C(=O)N[C@@H](CC(C)C)C(=O)N[C@@H](CCC(=O)O)C(=O)N[C@@H](CCC(N)=O)C(=O)N[C@@H](CCC(=O)O)C(=O)N[C@@H](CCCCN)C(=O)N[C@@H](CCC(N)=O)C(=O)N[C@@H](CCCCN)C(=O)N[C@@H](CCCCN)C(=O)N[C@@H](CCC(N)=O)C(=O)N[C@@H](CCCNC(=N)N)C(=O)N[C@@H](CCC(=O)O)C(=O)N[C@@H](CCC(N)=O)C(=O)N[C@@H](C)C(=O)N[C@@H](CCC(=O)O)C(=O)N[C@H](C(=O)N[C@@H](CC(N)=O)C(=O)NC1(C(=O)N[C@@H](CCC(N)=O)C(=O)N[C@H](C(=O)N[C@@H](CC(C)C)C(=O)N[C@@H](C)C(=O)N[C@@H](CCC(N)=O)C(=O)N[C@H](C(N)=O)C(C)C)[C@@H](C)CC)CCNCC1)[C@@H](C)O)[C@@H](C)CC)[C@@H](C)CC)C(C)C)C(C)C
B2: SEQ ID NO 206 (peptide)
peptide: Ac-IVLSLD[dV]PIKLK([γGlu-C20 diacid])KILLEQEKQKKQREQAETN[Aib]QILAQV-NH2
SMILES: CC[C@H](C)[C@H](NC(C)=O)C(=O)N[C@H](C(=O)N[C@@H](CC(C)C)C(=O)N[C@@H](CO)C(=O)N[C@@H](CC(C)C)C(=O)N[C@@H](CC(=O)O)C(=O)N[C@@H](C(=O)N1CCC[C@H]1C(=O)N[C@H](C(=O)N[C@@H](CCCCN)C(=O)N[C@@H](CC(C)C)C(=O)N[C@@H](CCCCNC(=O)CC[C@H](NC(=O)CCCCCCCCCCCCCCCCCCC(=O)O)C(=O)O)C(=O)N[C@@H](CCCCN)C(=O)N[C@H](C(=O)N[C@@H](CC(C)C)C(=O)N[C@@H](CC(C)C)C(=O)N[C@@H](CCC(=O)O)C(=O)N[C@@H](CCC(N)=O)C(=O)N[C@@H](CCC(=O)O)C(=O)N[C@@H](CCCCN)C(=O)N[C@@H](CCC(N)=O)C(=O)N[C@@H](CCCCN)C(=O)N[C@@H](CCCCN)C(=O)N[C@@H](CCC(N)=O)C(=O)N[C@@H](CCCNC(=N)N)C(=O)N[C@@H](CCC(=O)O)C(=O)N[C@@H](CCC(N)=O)C(=O)N[C@@H](C)C(=O)N[C@@H](CCC(=O)O)C(=O)N[C@H](C(=O)N[C@@H](CC(N)=O)C(=O)NC(C)(C)C(=O)N[C@@H](CCC(N)=O)C(=O)N[C@H](C(=O)N[C@@H](CC(C)C)C(=O)N[C@@H](C)C(=O)N[C@@H](CCC(N)=O)C(=O)N[C@H](C(N)=O)C(C)C)[C@@H](C)CC)[C@@H](C)O)[C@@H](C)CC)[C@@H](C)CC)C(C)C)C(C)C
B3: SEQ ID NO 208 (peptide)
peptide: Ac-IVLSLD[dV]PIKLK([γGlu-C20 diacid])KILLEQEKQK[Aib]QREQAETN[Api]QILAQV-NH2
SMILES: CC[C@H](C)[C@H](NC(C)=O)C(=O)N[C@H](C(=O)N[C@@H](CC(C)C)C(=O)N[C@@H](CO)C(=O)N[C@@H](CC(C)C)C(=O)N[C@@H](CC(=O)O)C(=O)N[C@@H](C(=O)N1CCC[C@H]1C(=O)N[C@H](C(=O)N[C@@H](CCCCN)C(=O)N[C@@H](CC(C)C)C(=O)N[C@@H](CCCCNC(=O)CC[C@H](NC(=O)CCCCCCCCCCCCCCCCCCC(=O)O)C(=O)O)C(=O)N[C@@H](CCCCN)C(=O)N[C@H](C(=O)N[C@@H](CC(C)C)C(=O)N[C@@H](CC(C)C)C(=O)N[C@@H](CCC(=O)O)C(=O)N[C@@H](CCC(N)=O)C(=O)N[C@@H](CCC(=O)O)C(=O)N[C@@H](CCCCN)C(=O)N[C@@H](CCC(N)=O)C(=O)N[C@@H](CCCCN)C(=O)NC(C)(C)C(=O)N[C@@H](CCC(N)=O)C(=O)N[C@@H](CCCNC(=N)N)C(=O)N[C@@H](CCC(=O)O)C(=O)N[C@@H](CCC(N)=O)C(=O)N[C@@H](C)C(=O)N[C@@H](CCC(=O)O)C(=O)N[C@H](C(=O)N[C@@H](CC(N)=O)C(=O)NC1(C(=O)N[C@@H](CCC(N)=O)C(=O)N[C@H](C(=O)N[C@@H](CC(C)C)C(=O)N[C@@H](C)C(=O)N[C@@H](CCC(N)=O)C(=O)N[C@H](C(N)=O)C(C)C)[C@@H](C)CC)CCNCC1)[C@@H](C)O)[C@@H](C)CC)[C@@H](C)CC)C(C)C)C(C)C
B4: SEQ ID NO 204 (peptide)
peptide: Ac-IVLSLD[dV]PIKLK([AEEA-AEEA-γGlu-γGlu-C18 diacid])KILLEQEKQKKQREQAETN[Aib]QILAQV-NH2
SMILES: CC[C@H](C)[C@H](NC(C)=O)C(=O)N[C@H](C(=O)N[C@@H](CC(C)C)C(=O)N[C@@H](CO)C(=O)N[C@@H](CC(C)C)C(=O)N[C@@H](CC(=O)O)C(=O)N[C@@H](C(=O)N1CCC[C@H]1C(=O)N[C@H](C(=O)N[C@@H](CCCCN)C(=O)N[C@@H](CC(C)C)C(=O)N[C@@H](CCCCNC(=O)COCCOCCNC(=O)COCCOCCNC(=O)CC[C@H](NC(=O)CC[C@H](NC(=O)CCCCCCCCCCCCCCCCC(=O)O)C(=O)O)C(=O)O)C(=O)N[C@@H](CCCCN)C(=O)N[C@H](C(=O)N[C@@H](CC(C)C)C(=O)N[C@@H](CC(C)C)C(=O)N[C@@H](CCC(=O)O)C(=O)N[C@@H](CCC(N)=O)C(=O)N[C@@H](CCC(=O)O)C(=O)N[C@@H](CCCCN)C(=O)N[C@@H](CCC(N)=O)C(=O)N[C@@H](CCCCN)C(=O)N[C@@H](CCCCN)C(=O)N[C@@H](CCC(N)=O)C(=O)N[C@@H](CCCNC(=N)N)C(=O)N[C@@H](CCC(=O)O)C(=O)N[C@@H](CCC(N)=O)C(=O)N[C@@H](C)C(=O)N[C@@H](CCC(=O)O)C(=O)N[C@H](C(=O)N[C@@H](CC(N)=O)C(=O)NC(C)(C)C(=O)N[C@@H](CCC(N)=O)C(=O)N[C@H](C(=O)N[C@@H](CC(C)C)C(=O)N[C@@H](C)C(=O)N[C@@H](CCC(N)=O)C(=O)N[C@H](C(N)=O)C(C)C)[C@@H](C)CC)[C@@H](C)O)[C@@H](C)CC)[C@@H](C)CC)C(C)C)C(C)C
B5: SEQ ID NO 205 (peptide)
peptide: Ac-IVLSLD[dV]PIKLK([AEEA-γGlu-γGlu-C18 diacid])KILLEQEKQKKQREQAETN[Aib]QILAQV-NH2
SMILES: CC[C@H](C)[C@H](NC(C)=O)C(=O)N[C@H](C(=O)N[C@@H](CC(C)C)C(=O)N[C@@H](CO)C(=O)N[C@@H](CC(C)C)C(=O)N[C@@H](CC(=O)O)C(=O)N[C@@H](C(=O)N1CCC[C@H]1C(=O)N[C@H](C(=O)N[C@@H](CCCCN)C(=O)N[C@@H](CC(C)C)C(=O)N[C@@H](CCCCNC(=O)COCCOCCNC(=O)CC[C@H](NC(=O)CC[C@H](NC(=O)CCCCCCCCCCCCCCCCC(=O)O)C(=O)O)C(=O)O)C(=O)N[C@@H](CCCCN)C(=O)N[C@H](C(=O)N[C@@H](CC(C)C)C(=O)N[C@@H](CC(C)C)C(=O)N[C@@H](CCC(=O)O)C(=O)N[C@@H](CCC(N)=O)C(=O)N[C@@H](CCC(=O)O)C(=O)N[C@@H](CCCCN)C(=O)N[C@@H](CCC(N)=O)C(=O)N[C@@H](CCCCN)C(=O)N[C@@H](CCCCN)C(=O)N[C@@H](CCC(N)=O)C(=O)N[C@@H](CCCNC(=N)N)C(=O)N[C@@H](CCC(=O)O)C(=O)N[C@@H](CCC(N)=O)C(=O)N[C@@H](C)C(=O)N[C@@H](CCC(=O)O)C(=O)N[C@H](C(=O)N[C@@H](CC(N)=O)C(=O)NC(C)(C)C(=O)N[C@@H](CCC(N)=O)C(=O)N[C@H](C(=O)N[C@@H](CC(C)C)C(=O)N[C@@H](C)C(=O)N[C@@H](CCC(N)=O)C(=O)N[C@H](C(N)=O)C(C)C)[C@@H](C)CC)[C@@H](C)O)[C@@H](C)CC)[C@@H](C)CC)C(C)C)C(C)C
B6: SEQ ID NO 7 (peptide)
peptide: Butyryl-VLSLD[dV]PIKLK([γGlu-C16 diacid])QILLKQERQKKQREQAEKNKQILEQV-NH2
SMILES: CCCC(=O)N[C@H](C(=O)N[C@@H](CC(C)C)C(=O)N[C@@H](CO)C(=O)N[C@@H](CC(C)C)C(=O)N[C@@H](CC(=O)O)C(=O)N[C@@H](C(=O)N1CCC[C@H]1C(=O)N[C@H](C(=O)N[C@@H](CCCCN)C(=O)N[C@@H](CC(C)C)C(=O)N[C@@H](CCCCNC(=O)CC[C@H](NC(=O)CCCCCCCCCCCCCCC(=O)O)C(=O)O)C(=O)N[C@@H](CCC(N)=O)C(=O)N[C@H](C(=O)N[C@@H](CC(C)C)C(=O)N[C@@H](CC(C)C)C(=O)N[C@@H](CCCCN)C(=O)N[C@@H](CCC(N)=O)C(=O)N[C@@H](CCC(=O)O)C(=O)N[C@@H](CCCNC(=N)N)C(=O)N[C@@H](CCC(N)=O)C(=O)N[C@@H](CCCCN)C(=O)N[C@@H](CCCCN)C(=O)N[C@@H](CCC(N)=O)C(=O)N[C@@H](CCCNC(=N)N)C(=O)N[C@@H](CCC(=O)O)C(=O)N[C@@H](CCC(N)=O)C(=O)N[C@@H](C)C(=O)N[C@@H](CCC(=O)O)C(=O)N[C@@H](CCCCN)C(=O)N[C@@H](CC(N)=O)C(=O)N[C@@H](CCCCN)C(=O)N[C@@H](CCC(N)=O)C(=O)N[C@H](C(=O)N[C@@H](CC(C)C)C(=O)N[C@@H](CCC(=O)O)C(=O)N[C@@H](CCC(N)=O)C(=O)N[C@H](C(N)=O)C(C)C)[C@@H](C)CC)[C@@H](C)CC)[C@@H](C)CC)C(C)C)C(C)C

Tests used:
CRF1R receptor = target: T1, CRF1R receptor (UniProt P34998 24-415, limits assumed); assay: cell-based or functional assay
T1 sequence (looked up): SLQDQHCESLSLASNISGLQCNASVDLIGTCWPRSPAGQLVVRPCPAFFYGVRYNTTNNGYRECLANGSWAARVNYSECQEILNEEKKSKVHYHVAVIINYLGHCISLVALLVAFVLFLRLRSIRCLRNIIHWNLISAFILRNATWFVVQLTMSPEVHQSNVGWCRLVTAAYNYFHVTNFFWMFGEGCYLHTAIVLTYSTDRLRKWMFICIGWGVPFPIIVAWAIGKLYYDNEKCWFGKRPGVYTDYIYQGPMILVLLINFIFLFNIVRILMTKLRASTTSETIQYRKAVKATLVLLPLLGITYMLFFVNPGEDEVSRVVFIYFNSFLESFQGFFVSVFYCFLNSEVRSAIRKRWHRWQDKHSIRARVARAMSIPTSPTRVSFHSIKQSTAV

[1] = target: human corticotropin-releasing factor 2a (CRF2a receptor) (human), Q13324; assay: cell-based or functional assay
Chain of human corticotropin-releasing factor 2a (CRF2a receptor) (human), Q13324 (Q13324 20-411): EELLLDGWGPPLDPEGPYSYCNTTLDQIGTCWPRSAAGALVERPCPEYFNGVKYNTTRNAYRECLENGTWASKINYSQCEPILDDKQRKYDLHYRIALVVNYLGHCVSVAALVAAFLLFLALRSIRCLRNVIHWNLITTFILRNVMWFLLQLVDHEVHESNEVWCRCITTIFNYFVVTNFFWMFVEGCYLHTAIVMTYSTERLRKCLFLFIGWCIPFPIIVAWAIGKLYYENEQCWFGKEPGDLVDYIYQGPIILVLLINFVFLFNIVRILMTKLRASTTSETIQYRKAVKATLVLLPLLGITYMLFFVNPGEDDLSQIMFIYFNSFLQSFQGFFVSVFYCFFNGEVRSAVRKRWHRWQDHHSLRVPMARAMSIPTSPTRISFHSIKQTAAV

| Binder | EC50 (CRF1R receptor) | Emax (% I) (CRF1R receptor) | EC50 [nM] (cAMP) [1] |
| --- | --- | --- | --- |
| B1 | 61.4 nM | 65% | 0.12 nM |
| B2 | 224 nM | 42% | 0.11 nM |
| B3 | 83.9 nM | 63% | 0.15 nM |
| B4 | – | -2% | 1.84 nM |
| B5 | – | 1% | 1.43 nM |
| B6 | 101 nM | 59% | 0.06 nM |
